Experimental data taken from PMC2715226.

Experiments:
[1] = target: T1, Ets-1 p42 (human, UniProt P14921-2 1-354); assay: not stated
T1 sequence: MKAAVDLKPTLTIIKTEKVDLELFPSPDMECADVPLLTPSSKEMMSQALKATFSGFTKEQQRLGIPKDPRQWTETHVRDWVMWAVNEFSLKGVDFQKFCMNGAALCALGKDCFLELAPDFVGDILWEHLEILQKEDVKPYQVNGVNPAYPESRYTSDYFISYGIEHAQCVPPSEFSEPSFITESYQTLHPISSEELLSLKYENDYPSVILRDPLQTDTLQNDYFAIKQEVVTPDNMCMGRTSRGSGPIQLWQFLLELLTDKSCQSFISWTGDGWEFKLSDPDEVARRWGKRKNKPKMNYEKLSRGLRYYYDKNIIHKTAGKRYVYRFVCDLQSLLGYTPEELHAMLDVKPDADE

[2] = target: T1, Ets-1 p42; assay: EMSA
[3] = target: T2, p51ΔC415 (human, UniProt P14921 1-415); assay: EMSA
T2 sequence: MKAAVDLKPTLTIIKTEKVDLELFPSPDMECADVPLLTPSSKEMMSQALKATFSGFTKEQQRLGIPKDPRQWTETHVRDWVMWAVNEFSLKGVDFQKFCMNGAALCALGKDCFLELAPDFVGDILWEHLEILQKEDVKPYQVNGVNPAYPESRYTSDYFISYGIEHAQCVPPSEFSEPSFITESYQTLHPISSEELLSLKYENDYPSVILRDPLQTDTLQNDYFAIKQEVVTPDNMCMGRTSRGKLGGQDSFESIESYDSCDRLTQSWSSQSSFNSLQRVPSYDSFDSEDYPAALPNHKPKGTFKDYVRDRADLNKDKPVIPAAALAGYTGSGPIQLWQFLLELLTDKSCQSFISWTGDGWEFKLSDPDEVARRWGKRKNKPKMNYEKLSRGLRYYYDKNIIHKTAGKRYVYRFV

[4] = target: T3, p51(301-415) (human, UniProt P14921 301-415); assay: EMSA
T3 sequence: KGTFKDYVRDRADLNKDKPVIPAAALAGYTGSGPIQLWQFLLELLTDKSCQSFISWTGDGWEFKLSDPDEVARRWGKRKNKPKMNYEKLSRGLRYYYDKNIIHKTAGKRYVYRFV

[5] = target: T4, p42ΔC328 (human, UniProt P14921-2 1-328); assay: EMSA
T4 sequence: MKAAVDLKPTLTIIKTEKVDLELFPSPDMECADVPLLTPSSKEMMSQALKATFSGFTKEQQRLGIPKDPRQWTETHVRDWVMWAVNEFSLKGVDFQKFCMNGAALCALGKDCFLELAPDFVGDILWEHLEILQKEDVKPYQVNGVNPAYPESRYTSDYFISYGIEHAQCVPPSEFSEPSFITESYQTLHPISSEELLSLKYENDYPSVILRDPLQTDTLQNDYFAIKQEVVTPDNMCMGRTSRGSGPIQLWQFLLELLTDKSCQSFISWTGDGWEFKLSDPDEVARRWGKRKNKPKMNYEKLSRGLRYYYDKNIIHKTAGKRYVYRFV

[6] = target: T5, p51ΔN331 (human, UniProt P14921 331-441); assay: EMSA
T5 sequence: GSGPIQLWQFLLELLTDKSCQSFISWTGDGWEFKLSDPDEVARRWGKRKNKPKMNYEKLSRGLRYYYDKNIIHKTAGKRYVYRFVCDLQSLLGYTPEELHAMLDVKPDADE

[7] = target: T6, Ets-1 DBD (human, UniProt P14921 331-415); assay: EMSA
T6 sequence: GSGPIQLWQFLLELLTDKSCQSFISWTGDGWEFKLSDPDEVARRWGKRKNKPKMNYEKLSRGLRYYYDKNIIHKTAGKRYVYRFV

B1: M2 (dsDNA)
DNA 1: ACCAAGACAGGAAGCACTTTTTGGAGATTA
DNA 2: TAATCTCCAAAAAGTGCTTCCTGTCTTGGT
[1]
  Kd: ~0.02 µM

B2: IP (dsDNA)
DNA 1: ACCAAGAGCTTCCTGCAGGAAGTGAGATTA
DNA 2: TAATCTCACTTCCTGCAGGAAGCTCTTGGT
[2]
  binding result: binds

B3: M1 (dsDNA)
DNA 1: ACCAAGACAAAAAGCACTTCCTGGAGATTA
DNA 2: TAATCTCCAGGAAGTGCTTTTTGTCTTGGT
[1]
  Kd: ~0.02 µM

B4: WT+4 (dsDNA)
DNA 1: ACCAAGACAGGAAGCACGCACTTCCTGGAGATTA
DNA 2: TAATCTCCAGGAAGTGCGTGCTTCCTGTCTTGGT
[2]
  binding result: binds
[3]
  binding result: binds
[4]
  binding result: binds
[5]
  binding result: binds
[6]
  binding result: binds
[7]
  binding result: binds

B5: WT (dsDNA)
DNA 1: ACCAAGACAGGAAGCACTTCCTGGAGATTA
DNA 2: TAATCTCCAGGAAGTGCTTCCTGTCTTGGT
[1]
  Kd: ~0.02 µM
